Data: patent US20070065890A1, “Method for promoting formation of facultative heterochromatin” (priority 2005, published 2007)

Target: endogenous histone H1
Assay: cell-based or functional assay

- derepression of the Gal4 pTK-Luc reporter (compare G4-SirT1 with G4-ΔN-SirT1): 20%
Substance: deletion mutant G4-ΔNSirT1 (Δ(1-268)) (from UniProt P04386 1-147)
